{"source": "FireProtDB (doi:10.1038/9384)", "proteins": {"B1": {"name": "Acyl-CoA-binding protein wild type, P07107 (protein)", "chain": "MSQAEFDKAAEEVKHLKTKPADEEMLFIYSHYKQATVGDINTERPGMLDFKGKAKWDAWNELKGTSKEDAMKAYIDKVEELKKKYGI"}}, "conditions": "Bos taurus; pH 5.3; 5 °C; GdnHCl; Fluorescence; Sodium acetate 0.02 M; whole UniProt chain shown", "data": [{"protein": "B1", "values": [{"measurement": "denaturant m value", "value": 3.53, "unit": "kcal/mol/M"}, {"measurement": "unfolding free energy", "value": 8.08, "unit": "kcal/mol"}]}]}
